The term tissue uptake denotes the share of the injected amount in each gram of the tissue.

Series [1] concerns DU145-PSMA+ prostate cancer xenografts. It counts as in vivo, mice. The settings on record: for tumour delineation in SPECT/CT scans: male SCID/Beige mice bearing DU145-PSMA+ xenografts, SPECT 15 to 120 min post-injection; for clearance from blood pool (SPECT/CT): mouse, in vivo. The protocol: (§1) The biodistribution of [^99mTcO2(DP^An-PSMAt)2]^+ and [^99mTcO2(DP^MEP-PSMAt)2]^+ was studied using SPECT/CT imaging and ex vivo biodistribution methods. In these studies, [^99mTcO2(DP^An-PSMAt)2]^+ and [^99mTcO2(DP^MEP-PSMAt)2]^+ were used directly from kit-based formulations, without further purification, mimicking procedures used in clinical radiopharmacies and nuclear medicine departments. Mice were injected with [^99mTcO2(DP^An-PSMAt)2]^+ or [^99mTcO2(DP^MEP-PSMAt)2]^+ (4–5 MBq), containing 3 μg (2.6 nmol) of DP^An-PSMAt or 3.5 μg (2.6 nmol) of (DP^MEP-PSMAt) via the tail-vein, and culled 2 h post-injection, followed by dissection, organ/tissue weighing and counting.
SPECT/CT studies were undertaken in male SCID/Beige mice bearing DU145-PSMA+ prostate cancer xenografts administered [^99mTcO2(DP^An-PSMAt)2]^+ and [^99mTcO2(DP^MEP-PSMAt)2]^+. SPECT images were acquired from 15 to 120 min post-injection of radiotracer. […]
(§2) 4.10 In vivo imaging and biodistribution (DU145-PSMA+ and LNCaP)
(§3) Preparation of tumour-bearing mice: All animal experiments were ethically reviewed by an Animal Welfare & Ethical Review Board at either King’s College London or Bart’s Cancer Institute and carried out in accordance with the Animals (Scientific Procedures) Act 1986 UK Home Office regulations governing animal experimentation. Subcutaneous prostate cancer xenografts were produced in SCID/beige mice (male, 7–12 weeks old) by injecting 4 × 10^6 DU145-PSMA+ or DU145 cells suspended in PBS (100 μL) on the right shoulder. Imaging and biodistribution studies were performed once a tumour had reached 5–10 mm in diameter (3–4 weeks after injection). Subcutaneous LNCaP prostate cancer xenografts were produced in athymic nude (Crl:NU(NCr)-Foxn1nu) mice (male, 6–7 weeks old) by injecting 5 × 10^6 LNCaP cells suspended in PBS:matrigel (1:1, 200 μL) on the right flank.
(§4) Biodistribution studies using 99mTc radiotracers were performed once a tumour had reached 150– 300 mm3 in volume (2–7 weeks after injection).
(§5) SCID/beige mice bearing DU145-PSMA+ prostate cancer tumour xenografts
(§6) SPECT/CT scanning and biodistribution studies: The 99mTc radiotracers (3.9–4.5 MBq, 3 mice per group, containing DPAn-PSMAt = 3.0 µg or DPMEP-PSMAt = 3.5 µg) were administered via tail vein injection under isoflurane anaesthesia. […]
(§7) in helical scanning mode). At 2 h post-injection, the animals were euthanized by cervical dislocation, organs/tissues harvested and weighed, and radioactivity counted using a gamma […]
(§8) ii. […] After scanning, the organs/tissues were harvested, weighed and radioactivity counted […]
(§9) Urine was collected and directly analysed by reverse-phase radio-HPLC (method 2). Data were analysed in GraphPad Prism 9 (version 9.1.1) and expressed as mean ± standard deviation (SD). […]

The next series can be described thus: in vivo. Further details: species or system mice. To be noted: male, athymic nude (Crl:NU(NCr)-Foxn1nu), mouse, iv, total radioactivity. The protocol: as §1
The biodistribution of [^99mTcO2(DP^An-PSMAt)2]^+ and [^99mTcO2(DP^MEP-PSMAt)2]^+ was further studied in (i) male SCID/Beige mice bearing DU145-PSMA+ prostate cancer xenografts (Fig. 8) and (ii) male nude mice bearing PSMA-expressing LNCaP prostate cancer xenografts (see SI). […]
as §2, §3, §4, §5, §6, §7, §8, §9

SMILES strings stand for the structures.

Regarding `COCCOc1ccc(P(/C(C(=O)O)=C(/C(=O)NCCOCCOCCOCCOCCC(=O)NCCCC[C@H](NC(=O)N[C@@H](CCC(=O)O)C(=O)O)C(=O)O)P(c2ccc(OCCOC)cc2)c2ccc(OCCOC)cc2)c2ccc(OCCOC)cc2)cc1` [[^99mTcO2(DP^MEP-PSMAt)2]^+, metal not drawn], in series [1], the “tumour delineation in SPECT/CT scans” value is recorded as “could be delineated” and the “clearance from blood pool (SPECT/CT)” value is “rapidly cleared from the blood pool via a renal pathway”. Also, the tissue uptake at 2 h in the series “in vivo” (Kidney) was found to be 46.4 ± 23.2 %ID/g. Besides, in “in vivo” (Liver), the tissue uptake at 2 h turned out to be 7.38 ± 3.98 %ID/g.
For the compound `COc1ccc(P(/C(C(=O)O)=C(/C(=O)NCCOCCOCCOCCOCCC(=O)NCCCC[C@H](NC(=O)N[C@@H](CCC(=O)O)C(=O)O)C(=O)O)P(c2ccc(OC)cc2)c2ccc(OC)cc2)c2ccc(OC)cc2)cc1` [[^99mTcO2(DP^An-PSMAt)2]^+, metal not drawn], in series [1], the “tumour delineation in SPECT/CT scans” value was “could be delineated” and the “clearance from blood pool (SPECT/CT)” value is on record as “rapidly cleared from the blood pool via a renal pathway”. The tissue uptake at 2 h in “in vivo” (Kidney) was 87.6 ± 13.3 %ID/g. The tissue uptake at 2 h in “in vivo” (Liver) was 0.9 ± 0.15 %ID/g.
